Data as given in patent US20160272683A1 (Novo Nordisk, published 2016).
Numbered stars: 1 amine (or outer) side, 2 acyl side, 3 side chain; on linkers, the order of the positions; unused ones are H or OH. Side chains are listed from the residue outwards. * marks the point of attachment. C20 diacid = O=C(O)CCCCCCCCCCCCCCCCCCC(=O)*; C18 diacid = O=C(O)CCCCCCCCCCCCCCCCC(=O)*; γGlu = O=C(O)[C@H](CCC(=O)[*:2])N[*:1]; C12 diacid = O=C(O)CCCCCCCCCCC(=O)*; Palmitoyl = CCCCCCCCCCCCCCCC(=O)*

T1: human amylin 3(a) receptor (human calcitonin receptor co-expressed with RAMP-3) (human, UniProt P30988 25-474; O60896 24-148, limits assumed)
T1 sequence (looked up) 1: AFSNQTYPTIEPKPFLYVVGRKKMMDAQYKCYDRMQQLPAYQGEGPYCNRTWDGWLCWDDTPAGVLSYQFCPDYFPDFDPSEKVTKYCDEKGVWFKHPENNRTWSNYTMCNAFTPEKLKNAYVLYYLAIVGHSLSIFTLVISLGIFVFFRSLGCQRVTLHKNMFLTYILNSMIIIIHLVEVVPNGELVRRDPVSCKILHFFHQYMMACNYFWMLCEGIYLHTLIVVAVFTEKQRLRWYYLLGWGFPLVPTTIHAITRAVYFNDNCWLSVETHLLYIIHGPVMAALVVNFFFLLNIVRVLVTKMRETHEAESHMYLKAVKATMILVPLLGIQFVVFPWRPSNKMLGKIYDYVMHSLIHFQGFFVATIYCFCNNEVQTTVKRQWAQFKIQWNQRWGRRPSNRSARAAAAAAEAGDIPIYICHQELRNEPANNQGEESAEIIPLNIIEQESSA
T1 sequence (looked up) 2: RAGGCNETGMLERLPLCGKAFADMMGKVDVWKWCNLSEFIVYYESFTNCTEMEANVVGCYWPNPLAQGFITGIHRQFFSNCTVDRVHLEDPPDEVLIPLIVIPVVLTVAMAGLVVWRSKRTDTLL

T2: human calcitonin receptor (human, UniProt P30988 25-474)
T2 sequence (looked up): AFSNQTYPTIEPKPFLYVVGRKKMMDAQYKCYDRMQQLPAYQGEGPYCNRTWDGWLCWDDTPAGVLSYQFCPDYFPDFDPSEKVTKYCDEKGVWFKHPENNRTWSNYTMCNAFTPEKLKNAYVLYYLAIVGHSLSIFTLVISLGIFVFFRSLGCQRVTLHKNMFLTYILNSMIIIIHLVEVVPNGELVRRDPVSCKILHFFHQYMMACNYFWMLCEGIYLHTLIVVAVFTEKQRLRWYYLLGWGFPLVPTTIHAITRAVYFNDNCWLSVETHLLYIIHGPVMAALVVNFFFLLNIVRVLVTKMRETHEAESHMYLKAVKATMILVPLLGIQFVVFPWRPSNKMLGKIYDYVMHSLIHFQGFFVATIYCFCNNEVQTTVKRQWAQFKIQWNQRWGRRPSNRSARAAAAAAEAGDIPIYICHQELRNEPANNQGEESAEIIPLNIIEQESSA


Key:
[1] = molecular target: T1, human amylin 3(a) receptor (human …); assay: cell-based or functional assay
[2] = molecular target: T2, human calcitonin receptor; assay: cell-based or functional assay

| Binder | hAmylin-R funct. EC50 (pM) [1] [pM] | hCTR funct. EC50 (pM) [2] [pM] |
| --- | --- | --- |
| {C18 diacid-γGlu}-ASELSTAALGRLSAELHELATLPRTETGSGPP-NH2 (SMILES CC(C)C[C@H](NC(=O)[C@H](C)NC(=O)[C@H](C)NC(=O)[C@@H](NC(=O)[C@H](CO)NC(=O)[C@H](CC(C)C)NC(=O)[C@H](CCC(=O)O)NC(=O)[C@H](CO)NC(=O)[C@H](C)NC(=O)CC[C@H](NC(=O)CCCCCCCCCCCCCCCCC(=O)O)C(=O)O)[C@@H](C)O)C(=O)NCC(=O)N[C@@H](CCCNC(=N)N)C(=O)N[C@@H](CC(C)C)C(=O)N[C@@H](CO)C(=O)N[C@@H](C)C(=O)N[C@@H](CCC(=O)O)C(=O)N[C@@H](CC(C)C)C(=O)N[C@@H](Cc1c[nH]cn1)C(=O)N[C@@H](CCC(=O)O)C(=O)N[C@@H](CC(C)C)C(=O)N[C@@H](C)C(=O)N[C@H](C(=O)N[C@@H](CC(C)C)C(=O)N1CCC[C@H]1C(=O)N[C@@H](CCCNC(=N)N)C(=O)N[C@H](C(=O)N[C@@H](CCC(=O)O)C(=O)N[C@H](C(=O)NCC(=O)N[C@@H](CO)C(=O)NCC(=O)N1CCC[C@H]1C(=O)N1CCC[C@H]1C(N)=O)[C@@H](C)O)[C@@H](C)O)[C@@H](C)O) [[N-terminal(C18 diacid-gGlu), des1, 30S, 31G, 32P]mimylin] | 80 | 19 |
| {C20 diacid-γGlu}-ASELSTAALGRLSAELHELATLPHTETGSGSP-NH2 (SMILES CC(C)C[C@H](NC(=O)[C@H](C)NC(=O)[C@H](C)NC(=O)[C@@H](NC(=O)[C@H](CO)NC(=O)[C@H](CC(C)C)NC(=O)[C@H](CCC(=O)O)NC(=O)[C@H](CO)NC(=O)[C@H](C)NC(=O)CC[C@H](NC(=O)CCCCCCCCCCCCCCCCCCC(=O)O)C(=O)O)[C@@H](C)O)C(=O)NCC(=O)N[C@@H](CCCNC(=N)N)C(=O)N[C@@H](CC(C)C)C(=O)N[C@@H](CO)C(=O)N[C@@H](C)C(=O)N[C@@H](CCC(=O)O)C(=O)N[C@@H](CC(C)C)C(=O)N[C@@H](Cc1c[nH]cn1)C(=O)N[C@@H](CCC(=O)O)C(=O)N[C@@H](CC(C)C)C(=O)N[C@@H](C)C(=O)N[C@H](C(=O)N[C@@H](CC(C)C)C(=O)N1CCC[C@H]1C(=O)N[C@@H](Cc1c[nH]cn1)C(=O)N[C@H](C(=O)N[C@@H](CCC(=O)O)C(=O)N[C@H](C(=O)NCC(=O)N[C@@H](CO)C(=O)NCC(=O)N[C@@H](CO)C(=O)N1CCC[C@H]1C(N)=O)[C@@H](C)O)[C@@H](C)O)[C@@H](C)O) [[N-terminal(C20 diacid-gGlu), des1, 25H, 30S, 31G]mimylin] | 27 | 18 |
| {C18 diacid-γGlu}-ASELSTAVLGRLSAELHELATLPRTETGSGSP-NH2 (SMILES CC(C)C[C@H](NC(=O)[C@H](CCC(=O)O)NC(=O)[C@H](Cc1c[nH]cn1)NC(=O)[C@H](CC(C)C)NC(=O)[C@H](CCC(=O)O)NC(=O)[C@H](C)NC(=O)[C@H](CO)NC(=O)[C@H](CC(C)C)NC(=O)[C@H](CCCNC(=N)N)NC(=O)CNC(=O)[C@H](CC(C)C)NC(=O)[C@@H](NC(=O)[C@H](C)NC(=O)[C@@H](NC(=O)[C@H](CO)NC(=O)[C@H](CC(C)C)NC(=O)[C@H](CCC(=O)O)NC(=O)[C@H](CO)NC(=O)[C@H](C)NC(=O)CC[C@H](NC(=O)CCCCCCCCCCCCCCCCC(=O)O)C(=O)O)[C@@H](C)O)C(C)C)C(=O)N[C@@H](C)C(=O)N[C@H](C(=O)N[C@@H](CC(C)C)C(=O)N1CCC[C@H]1C(=O)N[C@@H](CCCNC(=N)N)C(=O)N[C@H](C(=O)N[C@@H](CCC(=O)O)C(=O)N[C@H](C(=O)NCC(=O)N[C@@H](CO)C(=O)NCC(=O)N[C@@H](CO)C(=O)N1CCC[C@H]1C(N)=O)[C@@H](C)O)[C@@H](C)O)[C@@H](C)O) [[N-terminal(C18 diacid-gGlu), des1, 9V, 30S, 31G]mimylin] | 10 | 14 |
| {C20 diacid-γGlu}-ASELSTAALGRLSEELHELATLPRTETGSGSP-NH2 (SMILES CC(C)C[C@H](NC(=O)[C@H](C)NC(=O)[C@H](C)NC(=O)[C@@H](NC(=O)[C@H](CO)NC(=O)[C@H](CC(C)C)NC(=O)[C@H](CCC(=O)O)NC(=O)[C@H](CO)NC(=O)[C@H](C)NC(=O)CC[C@H](NC(=O)CCCCCCCCCCCCCCCCCCC(=O)O)C(=O)O)[C@@H](C)O)C(=O)NCC(=O)N[C@@H](CCCNC(=N)N)C(=O)N[C@@H](CC(C)C)C(=O)N[C@@H](CO)C(=O)N[C@@H](CCC(=O)O)C(=O)N[C@@H](CCC(=O)O)C(=O)N[C@@H](CC(C)C)C(=O)N[C@@H](Cc1c[nH]cn1)C(=O)N[C@@H](CCC(=O)O)C(=O)N[C@@H](CC(C)C)C(=O)N[C@@H](C)C(=O)N[C@H](C(=O)N[C@@H](CC(C)C)C(=O)N1CCC[C@H]1C(=O)N[C@@H](CCCNC(=N)N)C(=O)N[C@H](C(=O)N[C@@H](CCC(=O)O)C(=O)N[C@H](C(=O)NCC(=O)N[C@@H](CO)C(=O)NCC(=O)N[C@@H](CO)C(=O)N1CCC[C@H]1C(N)=O)[C@@H](C)O)[C@@H](C)O)[C@@H](C)O) [[N-terminal(C20 diacid-gGlu), des1, 15E, 30S, 31G]mimylin] | 41 | 25 |
| Palmitoyl-EASELSTAALGRLSAELHELATLPRTETGPESP-NH2 [[N-terminal(C16)]mimylin] | 10 | 13 |
| Ac-ASELSTAALGRLSAK([γGlu-C20 diacid])LHELATLPRTETGSGSP-NH2 [[N-terminal(acetyl), des1, 16K(C20 diacid-gGlu), 30S, 31G]mimylin] | 21 | 28 |
| {C20 diacid-γGlu}-ASELSTAALGRLSAELHELATLPRTETGSGSA-NH2 (SMILES CC(C)C[C@H](NC(=O)[C@H](C)NC(=O)[C@H](C)NC(=O)[C@@H](NC(=O)[C@H](CO)NC(=O)[C@H](CC(C)C)NC(=O)[C@H](CCC(=O)O)NC(=O)[C@H](CO)NC(=O)[C@H](C)NC(=O)CC[C@H](NC(=O)CCCCCCCCCCCCCCCCCCC(=O)O)C(=O)O)[C@@H](C)O)C(=O)NCC(=O)N[C@@H](CCCNC(=N)N)C(=O)N[C@@H](CC(C)C)C(=O)N[C@@H](CO)C(=O)N[C@@H](C)C(=O)N[C@@H](CCC(=O)O)C(=O)N[C@@H](CC(C)C)C(=O)N[C@@H](Cc1c[nH]cn1)C(=O)N[C@@H](CCC(=O)O)C(=O)N[C@@H](CC(C)C)C(=O)N[C@@H](C)C(=O)N[C@H](C(=O)N[C@@H](CC(C)C)C(=O)N1CCC[C@H]1C(=O)N[C@@H](CCCNC(=N)N)C(=O)N[C@H](C(=O)N[C@@H](CCC(=O)O)C(=O)N[C@H](C(=O)NCC(=O)N[C@@H](CO)C(=O)NCC(=O)N[C@@H](CO)C(=O)N[C@@H](C)C(N)=O)[C@@H](C)O)[C@@H](C)O)[C@@H](C)O) [[N-terminal(C20 diacid-gGlu), des1, 30S, 31G, 33A]mimylin] | 67 | 40 |
| {C20 diacid-γGlu}-ASELSTAALGHLSAELHELATLPRTETGSGSP-NH2 [[N-terminal(C20 diacid-gGlu), des1, 12H, 30S, 31G]mimylin] | 17 | 12 |
| Ac-ASELSTAALGRLSAELHK([γGlu-C20 diacid])LATLPRTETGSGSP-NH2 [[N-terminal(acetyl), des1, 19K(C20 diacid-gGlu), 30S, 31G]mimylin] | 32 | 19 |
| {C20 diacid-γGlu}-ASELSTAALGRLSAELHELATLPRTETGTGTP-NH2 (SMILES CC(C)C[C@H](NC(=O)[C@H](C)NC(=O)[C@H](C)NC(=O)[C@@H](NC(=O)[C@H](CO)NC(=O)[C@H](CC(C)C)NC(=O)[C@H](CCC(=O)O)NC(=O)[C@H](CO)NC(=O)[C@H](C)NC(=O)CC[C@H](NC(=O)CCCCCCCCCCCCCCCCCCC(=O)O)C(=O)O)[C@@H](C)O)C(=O)NCC(=O)N[C@@H](CCCNC(=N)N)C(=O)N[C@@H](CC(C)C)C(=O)N[C@@H](CO)C(=O)N[C@@H](C)C(=O)N[C@@H](CCC(=O)O)C(=O)N[C@@H](CC(C)C)C(=O)N[C@@H](Cc1c[nH]cn1)C(=O)N[C@@H](CCC(=O)O)C(=O)N[C@@H](CC(C)C)C(=O)N[C@@H](C)C(=O)N[C@H](C(=O)N[C@@H](CC(C)C)C(=O)N1CCC[C@H]1C(=O)N[C@@H](CCCNC(=N)N)C(=O)N[C@H](C(=O)N[C@@H](CCC(=O)O)C(=O)N[C@H](C(=O)NCC(=O)N[C@H](C(=O)NCC(=O)N[C@H](C(=O)N1CCC[C@H]1C(N)=O)[C@@H](C)O)[C@@H](C)O)[C@@H](C)O)[C@@H](C)O)[C@@H](C)O) [[N-terminal(C20 diacid-gGlu), des1, 30T, 31G, 32T]mimylin] | 50 | 45 |
| Ac-ASK([γGlu-C20 diacid])LSTAALGRLSAELHELATLPRTETGSGSP-NH2 [[N-terminal(acetyl), des1, 4K(C20 diacid-gGlu), 30S, 31G]mimylin] | 36 | 27 |
| {C12 diacid}-EASELSTAALGRLSAELHELATLPRTETGPESP-NH2 [[N-terminal(C12 diacid)]mimylin] | 23 | 8 |
